± gives the uncertainty stated by the source.
Experiment: self-splicing fitness, log relative to wild type (ln ratio); higher = more splicing; Tetrahymena group I intron in knt gene, E. coli kanamycin selection, DiMSum; sequences stand for … in CUCUCU…GGAGGGAAAAGUUAUCAGGCAUGCACCUGGUAGCUAGUCUUUAAACCAAUAGAUUGCAUCGGUUUAAAAGGCAAGACCGUCAAAUUGCGGGAAAGGGGUCAACAGCCGUUCAGUACCAAGUCUCAGGGGAAACUUUGAGAUGGCCUUGCAAAGGGUAUGGUAAUAAGCUGACGGACAUGGUCCUAACCACGCAGCCAAGUCCUAAGUCAACAGAUCUUCUGUUGAUAUGGAUGCAGUUCACAGACUAAAUGUCGGUCGGGGAAGAUGUAUUCUUCUCAUAAGAUAUAGUCGGACCUCUCCUUAAUGGGAGCUAGCGGAUGAAGUGAUGCAACACUGGAGCCGCUGGGAACUAAUUUGUAUGCGAAAGUAUAUUGAUUAGUUUUGGAGUACUCGUGGUCG
How it was run: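 Pooled colonies went to amplicon sequencing on an Illumina HiSeq 2500 after six replicate transformations. The plates were LB agar with 100 μg/mL carbenicillin, 50 μM IPTG and 0.2% rhamnose, with or without 25 μg/mL kanamycin, incubated overnight at 37°C or 30°C. The E. coli BL21(DE3) library had all eight P1ex-region intron nucleotides randomised, the intron placed in the knt kanamycin-resistance gene on pET-22b(+). DiMSum fitness is the error-weighted combination of replicate fold changes, kanamycin against none, normalised to wild type.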

Sequence	self-splicing fitness (ln) (30 °C)	self-splicing fitness (ln) (37 °C)
GAACAGCAAUAUUACGAUGG	-3.04 ± 0.19	-1.17 ± 0.13
GAACAGCAAUAUUACGCCAC	-3.15 ± 0.22	–
GAACAGCAAUAUUACGCCGG	-1.56 ± 0.18	-0.838 ± 0.24
GAACAGCAAUAUUACGCCGU	-1.98 ± 0.13	-1.61 ± 0.13
GAACAGCAAUAUUACGCGAC	-2.3 ± 0.14	-2.36 ± 0.18
GAACAGCAAUAUUACGCGAG	-2.2 ± 0.099	-1.32 ± 0.11
GAACAGCAAUAUUACGCGAU	-2.87 ± 0.13	-2.27 ± 0.14
GAACAGCAAUAUUACGCUGU	-3.8 ± 0.14	-2.99 ± 0.19
GAACAGCAAUAUUACGGAAA	-2.42 ± 0.16	-1.12 ± 0.14
GAACAGCAAUAUUACGGAAU	-1.6 ± 0.095	-1.18 ± 0.11
GAACAGCAAUAUUACGGAGA	-1.55 ± 0.19	-1.88 ± 0.13
GAACAGCAAUAUUACGGAGU	-2.35 ± 0.066	-1.66 ± 0.1
GAACAGCAAUAUUACGGCCU	-1.14 ± 0.11	-0.067 ± 0.14
GAACAGCAAUAUUACGGCUG	-2.78 ± 0.14	-2.06 ± 0.15
GAACAGCAAUAUUACGGUAA	-1.2 ± 0.059	-0.286 ± 0.064
GAACAGCAAUAUUACGGUAU	-0.973 ± 0.053	-0.269 ± 0.074
GAACAGCAAUAUUACGGUUU	-3.41 ± 0.13	-1.34 ± 0.14
GAACAGCAAUAUUACGUCAC	-3.44 ± 0.23	-0.689 ± 0.17
GAACAGCAAUAUUACGUUUC	-4.43 ± 0.14	-2.53 ± 0.14
GAAGAGCAAUAUUACGAAUA	–	-1.63 ± 0.35

Sequence	self-splicing fitness (ln) (30 °C)	self-splicing fitness (ln) (37 °C)
GAAGAGCAAUAUUACGAAUG	-2.23 ± 0.4	–
GAAGAGCAAUAUUACGACCA	-1.34 ± 0.14	-1.46 ± 0.36
GAAGAGCAAUAUUACGACGA	–	-2.03 ± 0.42
GAAGAGCAAUAUUACGAGCG	-3.17 ± 0.2	-0.882 ± 0.17
GAAGAGCAAUAUUACGAGUA	-3.78 ± 0.37	-2.75 ± 0.38
GAAGAGCAAUAUUACGAGUU	-2.61 ± 0.16	-2.03 ± 0.21
GAAGAGCAAUAUUACGAUCU	-1.21 ± 0.14	-0.955 ± 0.18
GAAGAGCAAUAUUACGAUUU	-1.31 ± 0.079	-1.04 ± 0.14
GAAGAGCAAUAUUACGCCCU	-2.24 ± 0.22	-1.38 ± 0.31
GAAGAGCAAUAUUACGCCGU	-2.88 ± 0.44	-2.96 ± 0.43
GAAGAGCAAUAUUACGCGCG	-2.21 ± 0.3	-1.36 ± 0.22
GAAGAGCAAUAUUACGCGUG	-2.43 ± 0.078	-1.32 ± 0.085
GAAGAGCAAUAUUACGCUCG	-2.32 ± 0.21	-1.37 ± 0.21
GAAGAGCAAUAUUACGCUCU	-3.53 ± 0.23	-2.74 ± 0.24
GAAGAGCAAUAUUACGGAAC	–	-0.903 ± 0.29
GAAGAGCAAUAUUACGGAGA	-3.22 ± 0.31	-1.88 ± 0.32
GAAGAGCAAUAUUACGGCAU	-1.96 ± 0.12	-1.99 ± 0.17
GAAGAGCAAUAUUACGGGAG	-3.15 ± 0.19	-2.19 ± 0.23
GAAGAGCAAUAUUACGGGGG	-3.04 ± 0.2	-3.06 ± 0.29
GAAGAGCAAUAUUACGGUUU	-1.52 ± 0.12	-0.796 ± 0.16

Source: the supplement of paper PMC7877785
